Measurements published in patent US12636342B2, “TARS derived from Akkermansia muciniphila or fragment thereof, and use thereof” (KOREA RESEARCH INSTITUTE OF BIOSCIENCE AND BIOTECHNOLOGY, priority 2020, dated 2026).

What was measured:
human macrophages (THP1) = assay: ELISA of immune cytokine secretion in THP1 under normal conditions; type: cell-based; details: THP1, 0.1, 0.2, 0.5 μM, 24 h
Description: Specifically, mouse bone marrow-derived macrophages (BMDMs) as mouse-derived immune cells were extracted from the mouse thighbone and shinbone, and then cultured in DMEM containing 10% fetal bovine serum (FBS) and antibiotics. Human macrophages (THP1) as human-derived immune cells were cultured in RPMI media containing 10% FBS and antibiotics.
The cultured cells were treated with AmTARS at 0.1 μM, 0.2 μM, and 0.5 μM for 24 h to obtain cell cultures. For cell removal, the media were centrifuged at 500×g for 10 min to obtain supernatants, which were then analyzed using an ELISA set (mouse interleukin (IL)-6, mouse IL-10, mouse tumor necrosis factor (TNF)-α, human IL-6, human IL-10, human TNF-α; BD Biosciences) to investigate the secretion of mouse- and human-derived immune cytokines.

Raw 264.7 cells = assay: ELISA of immune cytokine secretion in LPS-treated Raw 264.7 cells; type: cell-based, mouse; details: Raw 264.7, LPS, 24 h
Description: Next, to determine whether the regulation of immune cytokine secretion by AmTARS in an inflammatory environment was induced by the two functional sites, the mouse-derived immune cell Raw 264.7 cells were treated with LPS to induce an immune response by the method as in Example 3, and treated with AmTARS, ΔU1AmTARS, and ΔU2AmTARS for 24 h separately to obtain cell cultures. The obtained cell cultures were analyzed for Immune cytokine secretion by way of the same method as in Example 2.

TLR4 = target: T1, TLR4 (Homo sapiens, UniProt O00206); assay: Pull-down assay with TLR4 in HEK 293T cells; type: binding; details: Strep-AmTARS and TLR4-FLAG
T1 construct: FLAG (C); expressed in transfected cells; host or cells: HEK 293T
Text: (A) AmTARS-interacting candidates identified from membrane protein interactome analysis. Potential interactors (receptors) involved in innate immunity are indicated in red. (B-D) Pull-down of Strep-AmTARS co-expressed with NLRX1-FLAG (B), CD163-FLAG (C), and TLR4-FLAG (D) in HEK 293T cells. Data shown are representative of three independent experiments, each with similar results.
Then, Strep-tagged AmTARS, AmTARS having deletions of two functional site (AmTARSΔ1Δ2), and FLAG-tagged TLR2 were transduced into human-derived HEK 293T cells through PEI, and thereafter, the cells were lysed using a lysis buffer containing 50 mM Tris-HCl (pH 7.5), 100 mM NaCl, 1% NP-40, 1 mM EDTA, 0.25% Na-deoxycholate, and a protease inhibitor cocktail. The cell lysates each were incubated with Strep Tactin beads and washed with a buffer containing 137 mM NaCl, 2.7 mM KCl, 10 mM Na2HPO4, 1.8 mM KH2PO4, and 1 mM EDTA, and proteins attached to the beads were eluted and analyzed by immunoblotting.

T1 sequence (O00206 24-839): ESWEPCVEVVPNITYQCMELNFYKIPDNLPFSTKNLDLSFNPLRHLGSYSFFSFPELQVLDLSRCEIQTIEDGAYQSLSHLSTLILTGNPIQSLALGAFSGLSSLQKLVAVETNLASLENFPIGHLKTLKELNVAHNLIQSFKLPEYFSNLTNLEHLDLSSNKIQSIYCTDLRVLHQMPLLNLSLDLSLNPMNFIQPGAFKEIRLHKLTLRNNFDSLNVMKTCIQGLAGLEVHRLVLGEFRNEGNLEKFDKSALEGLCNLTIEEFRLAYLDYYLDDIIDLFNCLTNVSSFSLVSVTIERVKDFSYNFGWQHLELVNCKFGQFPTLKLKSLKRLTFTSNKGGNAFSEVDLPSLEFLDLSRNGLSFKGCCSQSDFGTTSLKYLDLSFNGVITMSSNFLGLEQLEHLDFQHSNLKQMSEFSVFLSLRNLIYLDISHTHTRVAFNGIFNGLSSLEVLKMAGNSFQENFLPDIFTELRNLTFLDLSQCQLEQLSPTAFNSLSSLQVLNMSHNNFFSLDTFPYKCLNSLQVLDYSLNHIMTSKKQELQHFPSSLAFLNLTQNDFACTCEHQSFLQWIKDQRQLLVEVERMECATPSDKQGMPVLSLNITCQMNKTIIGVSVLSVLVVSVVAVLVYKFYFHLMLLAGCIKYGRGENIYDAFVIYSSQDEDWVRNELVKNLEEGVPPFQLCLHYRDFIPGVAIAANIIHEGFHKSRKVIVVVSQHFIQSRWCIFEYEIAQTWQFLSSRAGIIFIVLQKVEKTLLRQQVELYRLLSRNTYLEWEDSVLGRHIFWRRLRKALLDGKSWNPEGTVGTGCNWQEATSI

B1: Akkermansia muciniphila-derived threonyl-tRNA synthetase (TARS) (protein)
chain: MSEHKERKTLEERQQMSDLERLRHSCAHVLATAICRLWPDAQLAGGPAVDNGFYYDVELDHRISTEDFERIEEEMKKVVKENQVFQKEVISRADAMKMAESGELGALGPRSEPSRFKIDLLNDIPEDEEISLYRNGDFTDLCAGPHVGRTGNCKAFKIMSVASAFYKGDKNRPMLQRIYGTCFPNRTQLDEHLERLEEARRRDHRKLGRELGLFCIDESVGQGLILWKPKGALIRRSLQDFITEELDKLGYSQVYTPNIGKLDLYRTSGHFPYYQESQYAPIPERDAMEKLSQEGASCAELFNGLATGTIEGYMLKPMNCPHHIKIYANDAHSYRDLPVRLAEFGTVYRWEQSGELGGMTRVRGFTQDDAHIFCTPDQLAGEIRQCLGIVKTIFGTLGMTDYRVRLSMRDPESDKYVGSPENWDKAEQALREAAEWLGADYSEEAGEAAFYGPKIDFIVRDAIGREWQLGTVQVDYNLPERFDLHYTGADNKPHRPVMVHRAPFGSMERFTGLLIEHFEGKFPTWLSPEQVRVLPISDKVTDVAAAHRTALAARGVRVTVDETPDKIGAKIRNARLDRVPYMLVLGQREAEDGTVSVRHRDKGDLGAMPFEQFADLVAREIAERHISPVI
modifications: Akkermansia muciniphila TARS
B1 was tested, and the “secretion of IL-6” value (human macrophages (THP1)) was “not secreted”, the “secretion of IL-10” value (human macrophages (THP1)) was “increased in a dose-dependent manner” and the “secretion of TNF-α” value (human macrophages (THP1)) was “not secreted”. For the same molecule, the “secretion of IL-6” value (Raw 264.7 cells) was “reduced in a protein concentration-dependent manner”, the “secretion of IL-10” value (Raw 264.7 cells) was “increasingly secreted in an AmTARS concentration-dependent manner” and the “secretion of TNF-α” value (Raw 264.7 cells) was “reduced in a protein concentration-dependent manner”. The “interaction with TLR4 (pull-down)” value (TLR4) was “no interaction”.
